This is an account of results in patent US20250215083A1 (JIANGSU HENGRUI PHARMACEUTICALS, published 2025).

As a reminder, the EC50 is the concentration giving half of the maximal effect.

Substitutions are numbered along the chain they refer to. No end group written: not given here.

One assay has as its target hTSLP (human, UniProt Q969D9 29-159). Description: ELISA per WO2021139758 Test Example 4.
A further assay concerns the target hIL5 (human, UniProt P05113 20-134). Description: ELISA per WO2021139758 Test Example 4. A general note: In an ELISA, binding on a coated surface is turned into a signal by an enzyme label.
In another assay the target is T1, human CCR8 (human, UniProt P51685 1-355).
T1 construct: on CHOK1-human CCR8 cells
Description: FACS, CHOK1-human CCR8 cells. The text has this: (§1) To determine whether the GPRC5D/CD3 bispecific antibodies of the present disclosure cross-bind to the GPCRA and GPCRB family members, a flow cytometry assay was used in this test example to measure the capacity of the GPRC5D/CD3 bispecific antibodies to bind to CHOK1-human CCR8 cells expressing CCR8 (the GPCR A family) (constructed with reference to Example 2) and CHOK1-human GIPR cells expressing human GIPR (the GPCR B family) (constructed with reference to Example 2). The specific procedure was as follows: The cells described above were cultured in DMEF/12K culture medium containing 10% FBS, incubated in a 37° C., 5% CO₂ incubator for 2 days, and added to a cell plate at 1×10⁵ cells/well. The plate was centrifuged at 300 g for 5 min and washed once with 1% BSA. The antibodies were serially diluted to 8 concentrations and added to the cell plate at 100 μL/well. The plate was incubated at 4° C. for 1 h and washed once with 1% BSA. […] The plate was washed three times with 1% BSA, PBS was added at 100 μL/well, and plate reading was performed.
In general terms: Flow cytometry measures light scatter and fluorescence of single cells or particles in a stream.

The next assay concerns the target T2, human GIPR (human, UniProt P48546 22-466).
T2 construct: on CHOK1-human GIPR cells
T2 sequence: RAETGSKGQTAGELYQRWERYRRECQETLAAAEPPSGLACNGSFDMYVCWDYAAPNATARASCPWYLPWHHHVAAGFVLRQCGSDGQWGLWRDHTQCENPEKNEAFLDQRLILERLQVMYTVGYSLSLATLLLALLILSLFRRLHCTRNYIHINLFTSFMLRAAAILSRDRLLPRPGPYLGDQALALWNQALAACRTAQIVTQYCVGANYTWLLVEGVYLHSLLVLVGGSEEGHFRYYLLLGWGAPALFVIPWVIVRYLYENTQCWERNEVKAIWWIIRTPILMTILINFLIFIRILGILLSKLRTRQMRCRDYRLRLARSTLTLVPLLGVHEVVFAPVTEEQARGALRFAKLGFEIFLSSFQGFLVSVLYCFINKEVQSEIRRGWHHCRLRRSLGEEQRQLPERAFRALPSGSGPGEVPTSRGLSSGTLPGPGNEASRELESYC
Description: FACS, CHOK1-human GIPR cells.
Text: as §1

Assay [1] concerns the target T3, N-terminal peptide of human GPRC5D (human, biotinylated; made with and without intramolecular disulfide bonds).
T3 construct: synthesized by GenScript; captured on streptavidin; also called amino-terminal peptide
T3 peptide: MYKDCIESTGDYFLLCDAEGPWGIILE
Description: ELISA, biotinylated peptide on streptavidin. The source says: (§2) To determine the epitope of GPRC5D to which the GPRC5D/CD3 bispecific antibodies of the present disclosure bind, 4 extracellular domain peptides of human GPRC5D were synthesized, including an amino-terminal peptide (N-terminal peptide), an E2 peptide, an E3 peptide, and an E4 peptide (synthesized by GenScript). The peptides were biotinylated and made into two forms: one lacked intramolecular disulfide bonds and the other included intramolecular disulfide bonds. An Elisa plate (Corning 3590) was coated with streptavidin (sigma, SA101), left to stand at 37° C. for 2 h, and then washed. The non-specific binding sites were blocked with PBS containing 5% skim milk, and the plate was left to stand at 37° C. for 2 h and then washed. The peptides, diluted in PBS containing 1% BSA, were added at 100 μL/well, and the plate was left to stand at 37° C. for 1 h and then washed. Subsequently, the GPRC5D/CD3 antibodies, diluted in PBS containing 1% BSA to 0.003 nM-300 nM, were added at 100 μL/well, and the plate was left to stand at 37° C. for 1 h and then washed. […] TMB (KPL, 5120-0077) was added at 100 μL/well. After 5 min of color development, 1 M H₂SO₄ was added to stop the reaction, and the OD₄₅₀ was measured.

Assay [2] concerns the target T4, E3 peptide of human GPRC5D (human, biotinylated; made with and without intramolecular disulfide bonds).
T4 peptide: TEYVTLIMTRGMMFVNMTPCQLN
Put plainly: peptide ELISA; note: - indicates no detectable binding.
Text: as §2

Assay [3] has as its target T5, E4 peptide of human GPRC5D (human, also: biotinylated, site not given here, made with and without intramolecular disulfide bonds).
T5 peptide: RGNPQFQRQPQWDDC
The description is as above.
Text: as §2

Assay [4] concerns the target T6, E2 peptide of human GPRC5D (human, also: biotinylated, site not given here, made with and without intramolecular disulfide bonds).
T6 peptide: NQQTAPVRYC
Described as above.
Text: as §2

The target of the next assay is human GPRC5D (human, UniProt Q9NZD1 1-345). Put plainly: cell-based or functional assay.

B1: HJ-3 (bispecific antibody)
chain 1: not shown
chain 2: DIQMTQSPSSVSASVGDRVTITCRASQDIANYLSWYQQKPGKSPKLLIYGTSNLEVGVPSRFSGSRSGTDFTLTISSLQPEDFATYYCLQDKEFPRTFGGGTKVEIKGGGGSSGAPRFLTRPLAFVVSVGKDATLSSQIVGNPTPQVSWEKDKQPVTAGARFRLAQDGDLYRLKILDLQLSDSGQYVSRARNAIGEAFACLGLQVDAEA
chain 3: EVQLVQSGAEVKKPGSSVKVSCKASGYTFSNYLIEWVRQAPGQGLEWIGVIDPGVGDTNYNENFKGRATLTADKSTSTAYIELSSLRSEDTAVYYCAREDNTGTAFDYWGQGTTVTVSSASTKGPSVFPLAPSSKSTSGGTAALGCLVKDYFPEPVTVSWNSGALTSGVHTFPAVLQSSGLYSLSSVVTVPSSSLGTQTYICNVNHKPSNTKVDKKVEPKSCDKTHTCPPCPAPEAAGGPSVFLFPPKPKDTLMISRTPEVTCVVVDVSHEDPEVKFNWYVDGVEVHNAKTKPREEQYNSTYRVVSVLTVLHQDWLNGKEYKCKVSNKALPAPIEKTISKAKGQPREPQVCTLPPSREEMTKNQVSLSCAVKGFYPSDIAVEWESNGQPENNYKTTPPVLDSDGSFFLVSKLTVDKSRWQQGNVFSCSVMHEALHNHYTQKSLSLSPGKDYKDDDDK
chain 4: SIVMTQTPLSLSVTPGQPASISCKASQSVSSDVTWYLQKPGQSPQLLIYYVSEHYTGVPDRFSGSGYGTDFTLKISRVEAEDVGVYYCQQHHRFPLTFGQGTKLEIKRTVAAPSVFIFPPSDEQLKSGTASVVCLLNNFYPREAKVQWKVDNALQSGNSQESVTEQDSKDSTYSLSSTLTLSKADYEKHKVYACEVTHQGLSSPVTKSFNRGEC
As to B1, the EC50 in the assay with hTSLP was 3.23 nM; in the assay with hIL5 it was 17.4 nM.

B2: HJ-10 (bispecific antibody)
chain 1: not shown
chain 2: DIQMTQSPSSVSASVGDRVTITCRASQDIANYLSWYQQKPGKSPKLLIYGTSNLEVGVPSRFSGSRSGTDFTLTISSLQPEDFATYYCLQDKEFPRTFGGGTKVEIKRTVASSGAPRFLTRPKASVVSVGKDATLSCQIVGNPFPQVSWEKDKQPVTAGVRFRLAQDGDLYRLKILDLQLSDSGQYVCRARNAHGEAFACLGLQVDAEA
chain 3: EVQLVQSGAEVKKPGSSVKVSCKASGYTFSNYLIEWVRQAPGQGLEWIGVIDPGVGDTNYNENFKGRATLTADKSTSTAYIELSSLRSEDTAVYYCAREDNTGTAFDYWGQGTTVTVSSASTKGPSVFPLAPSSKSTSGGTAALGCLVKDYFPEPVTVSWNSGALTSGVHTFPAVLQSSGLYSLSSVVTVPSSSLGTQTYICNVNHKPSNTKVDKKVEPKSCDKTHTCPPCPAPEAAGGPSVFLFPPKPKDTLMISRTPEVTCVVVDVSHEDPEVKFNWYVDGVEVHNAKTKPREEQYNSTYRVVSVLTVLHQDWLNGKEYKCKVSNKALPAPIEKTISKAKGQPREPQVCTLPPSREEMTKNQVSLSCAVKGFYPSDIAVEWESNGQPENNYKTTPPVLDSDGSFFLVSKLTVDKSRWQQGNVFSCSVMHEALHNHYTQKSLSLSPGK
chain 4: B1 chain 4
For the molecule B2, the EC50 with hTSLP is 3.17 nM; in the assay with hIL5, 20.8 nM.

B3: HJ-11 (bispecific antibody)
chain 1: not shown
chain 2: B2 chain 2 with A115C
chain 3: B2 chain 3
chain 4: B1 chain 4
B3: the figures for the EC50 with hTSLP and in the assay with hIL5 were 3 nM and 9.46 nM, respectively.

B4: HJ-9 (bispecific antibody)
chain 1: not shown
chain 2: B2 chain 2 with R121C, C137S, C188S
chain 3: B2 chain 3
chain 4: B1 chain 4
For B4, the values for the EC50 in the assay with hTSLP and in the assay with hIL5 were 3.18 nM and 10.9 nM, respectively.

B5: HJ-5 (bispecific antibody)
chain 1: not shown
chain 2: B1 chain 2 with L123K, F125S, T144F, A160V, I194H
chain 3: B2 chain 3
chain 4: B1 chain 4
B5: the EC50 was 2.64 nM with hTSLP and 16 nM with hIL5.

B6: HJ-6 (bispecific antibody)
chain 1: not shown
chain 2: B1 chain 2 with R121C, L123K, F125S, T144F, A160V, I194H
chain 3: B2 chain 3
chain 4: B1 chain 4
In the case of B6, the EC50 with hTSLP stood at 2.88 nM; with hIL5, 37 nM.

B7: HJ-8 (bispecific antibody)
chain 1: not shown
chain 2: B2 chain 2 with C137S, C188S
chain 3: B2 chain 3
chain 4: B1 chain 4
On to B7, for which the EC50 with hTSLP came out at 3.33 nM; with hIL5, 18.7 nM.

B8: HJ-7 (bispecific antibody)
chain 1: not shown
chain 2: B2 chain 2 with R108G, T109G, V110G, A111G
chain 3: B2 chain 3
chain 4: B1 chain 4
For B8, the EC50 with hTSLP was 2.18 nM; in the assay with hIL5, 17.7 nM.

B9: F2-0G4S-1 (bispecific antibody)
heavy 1: not shown
light 1: DVVMTQTPLSLSVTPGQPASISCRSSQSLVHSQGNTYLYWYLQKPGQSPKLLIYKVSNRFSGVPDRFSGSGSGTDFTLKISRVEAEDVGVYYCSQSTHVPPLTFGQGTKLEIKRTVAAPSVFIFPPSDEQLKSGTASVVCLLNNFYPREAKVQWKVDNALQSGNSQESVTEQDSKDSTYSLSSTLTLSKADYEKHKVYACEVTHQGLSSPVTKSFNRGEC
heavy 2: not shown
light 2: not shown
notes: formula 2-0G4S
Regarding B9, the binding result with human CCR8 is on record as “no binding”; with human GIPR, “no binding”; in assay [2], “no binding (tested: 0.003 nM-300 nM)”; in assay [3] it was “no binding (tested: 0.003 nM-300 nM)”; in assay [4], “no binding (tested: 0.003 nM-300 nM)”. Moreover, the EC50 in assay [1] was 0.392 nM. For the same molecule, the “EC50 ratio (relative to JNJ-64407564), cytotoxic activity against NCI-H929” value with human GPRC5D worked out at 0.57. The “Lysis rate %, cytotoxic activity against NCI-H929” value with human GPRC5D came out at 91.5%.

B10: F2-1 (bispecific antibody)
heavy 1: not shown
light 1: B9 light 1
heavy 2: not shown
light 2: not shown
notes: formula 2
Turning to B10, the binding result with human CCR8 and with human GIPR was “no binding” each time.

B11: F4-6 (bispecific antibody)
heavy 1: not shown
light 1: not shown
heavy 2: EVQLVQSGAEVKKPGASVKVSCKVSGYTFTDYPIHWMRQAPGQGLEWMGYVFPRDGSTKYNEKFRVRVTWTADKSTSTVYMELSSLRSEDTAVYYCSRELTAYWGQGTTVTVSSASTKGPSVFPLAPSSKSTSGGTAALGCLVKDYFPEPVTVSWNSGALTSGVHTFPAVLQSSGLYSLSSVVTVPSSSLGTQTYICNVNHKPSNTKVDKKVEPKSCDKTHTCPPCPAPEAAGGPSVFLFPPKPKDTLMISRTPEVTCVVVDVSHEDPEVKFNWYVDGVEVHNAKTKPREEQYNSTYRVVSVLTVLHQDWLNGKEYKCKVSNKALPAPIEKTISKAKGQPREPQVCTLPPSRDELTKNQVSLSCAVKGFYPSDIAVEWESNGQPENNYKTTPPVLDSDGSFFLVSKLTVDKSRWQQGNVFSCSVMHEALHNHYTQKSLSLSPGK
light 2: DVVLTQSPLSLPVTLGQPASISCKSSQSLLHSSGKTYLNWLLQRPGQSPRRLIYLVSKLDSGVPDRFSGSGSGTDFTLKISRVEAEDVGVYYCAQGTHFPRTFGGGTKVEIKRTVAAPSVFIFPPSDEQLKSGTASVVCLLNNFYPREAKVQWKVDNALQSGNSQESVTEQDSKDSTYSLSSTLTLSKADYEKHKVYACEVTHQGLSSPVTKSFNRGEC
notes: formula 4
Take B11: the binding result with human CCR8 and with human GIPR was “no binding” throughout.
